Earlier results on one molecule are cited in patent US9173901B2, “Compositions and methods of using lamellar bodies for modifying linear biological macromolecules” (LAMELLAR THERAPEUTICS LIMITED, priority 2004, dated 2015).

The data set has as its system CF patients. As to conditions: young patients with mild lung disease; six months course.

B1: rhDNAse: recombinant human DNAse, marketed for thinning CF secretions (protein, UniProt P24855 23-282, looked up)
Deoxyribonuclease-1: LKIAAFNIQTFGETKMSNATLVSYIVQILSRYDIALVQEVRDSHLTAVGKLLDNLNQDAPDTYHYVVSEPLGRNSYKERYLFVYRPDQVSAVDSYYYDDGCEPCGNDTFNREPAIVRFFSRFTEVREFAIVPLHAAPGDAVAEIDALYDVYLDVQEKWGLEDVMLMGDFNAGCSYVRPSQWSSIRLWTSPTFQWLIPDSADTTATPTHCAYDRIVVAGMLLRGAVVPDSALPFNFQAAYGLSDQLAQAISDHYPVEVMLK
B1: the “benefit in FEVI” value is on record as 3% and the “decrease in frequency of intravenous antibiotic courses” value was 34%.
